# Results: patent US20220073608A1
# What was measured:
# [1] = molecular target: monkey SEMA4D, full length, on CHO-K1 cells (CHO-K1 cSEMA4D) (monkey); experiment: FACS, CHO-K1 cSEMA4D cells; Ab 13.3 nM
# [2] = molecular target: mouse SEMA4D, full length, on CHO-K1 cells (CHO-K1 mSEMA4D) (mouse) (UniProt O09126); experiment: FACS, CHO-K1 mSEMA4D cells; Ab 0.000853 nM
# [3] = molecular target: mouse SEMA4D, full length, on CHO-K1 cells (CHO-K1 mSEMA4D) (mouse) (UniProt O09126); experiment: FACS, CHO-K1 mSEMA4D cells; Ab 0.534 nM
# [4] = molecular target: T1, human SEMA4D, full length, on CHO-K1 cells (CHO-K1 hSEMA4D) (human) (UniProt Q92854); experiment: FACS, CHO-K1 hSEMA4D cells; Ab 0.00427 nM
# T1 sequence (looked up): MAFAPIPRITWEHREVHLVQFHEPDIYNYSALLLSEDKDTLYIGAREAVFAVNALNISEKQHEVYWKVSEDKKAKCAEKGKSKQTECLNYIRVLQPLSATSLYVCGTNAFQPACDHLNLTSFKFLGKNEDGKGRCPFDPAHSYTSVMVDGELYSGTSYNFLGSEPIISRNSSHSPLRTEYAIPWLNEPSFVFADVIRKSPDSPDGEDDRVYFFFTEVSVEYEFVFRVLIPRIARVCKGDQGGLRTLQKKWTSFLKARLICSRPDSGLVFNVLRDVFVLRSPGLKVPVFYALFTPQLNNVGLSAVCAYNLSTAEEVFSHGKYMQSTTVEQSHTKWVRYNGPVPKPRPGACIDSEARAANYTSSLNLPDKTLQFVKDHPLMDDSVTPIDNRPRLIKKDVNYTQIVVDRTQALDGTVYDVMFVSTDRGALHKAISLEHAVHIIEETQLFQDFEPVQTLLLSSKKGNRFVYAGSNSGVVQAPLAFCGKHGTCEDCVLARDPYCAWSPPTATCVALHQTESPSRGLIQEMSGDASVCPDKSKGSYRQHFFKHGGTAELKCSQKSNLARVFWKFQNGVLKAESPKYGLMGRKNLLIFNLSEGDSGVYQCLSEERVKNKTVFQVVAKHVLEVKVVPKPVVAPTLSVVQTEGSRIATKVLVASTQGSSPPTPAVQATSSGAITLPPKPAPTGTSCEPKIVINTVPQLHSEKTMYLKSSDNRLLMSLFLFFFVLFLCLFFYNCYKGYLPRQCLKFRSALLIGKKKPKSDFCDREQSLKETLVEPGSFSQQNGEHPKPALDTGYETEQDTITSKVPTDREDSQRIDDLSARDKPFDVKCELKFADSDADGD
# [5] = molecular target: monkey SEMA4D, full length, on CHO-K1 cells (CHO-K1 cSEMA4D) (monkey); experiment: FACS, CHO-K1 cSEMA4D cells; Ab 0.000853 nM
# [6] = molecular target: mouse SEMA4D, full length, on CHO-K1 cells (CHO-K1 mSEMA4D) (mouse) (UniProt O09126); experiment: FACS, CHO-K1 mSEMA4D cells; Ab 0.0213 nM
# [7] = molecular target: T1, human SEMA4D, full length, on CHO-K1 cells (CHO-K1 hSEMA4D) (human); experiment: FACS, CHO-K1 hSEMA4D cells; Ab 13.3 nM
# [8] = molecular target: T2, biotinylated hSEMA4D ECD-His (human) (UniProt Q92854); experiment: FACS, blocking of biotinylated hSEMA4D ECD-His binding to 293F hPlexin B1 cells; Ab 2.67 nM
# T2 sequence (chain, biotinylated with Biotin-X-X-NHS at a molar ratio of 8,1; sites not stated): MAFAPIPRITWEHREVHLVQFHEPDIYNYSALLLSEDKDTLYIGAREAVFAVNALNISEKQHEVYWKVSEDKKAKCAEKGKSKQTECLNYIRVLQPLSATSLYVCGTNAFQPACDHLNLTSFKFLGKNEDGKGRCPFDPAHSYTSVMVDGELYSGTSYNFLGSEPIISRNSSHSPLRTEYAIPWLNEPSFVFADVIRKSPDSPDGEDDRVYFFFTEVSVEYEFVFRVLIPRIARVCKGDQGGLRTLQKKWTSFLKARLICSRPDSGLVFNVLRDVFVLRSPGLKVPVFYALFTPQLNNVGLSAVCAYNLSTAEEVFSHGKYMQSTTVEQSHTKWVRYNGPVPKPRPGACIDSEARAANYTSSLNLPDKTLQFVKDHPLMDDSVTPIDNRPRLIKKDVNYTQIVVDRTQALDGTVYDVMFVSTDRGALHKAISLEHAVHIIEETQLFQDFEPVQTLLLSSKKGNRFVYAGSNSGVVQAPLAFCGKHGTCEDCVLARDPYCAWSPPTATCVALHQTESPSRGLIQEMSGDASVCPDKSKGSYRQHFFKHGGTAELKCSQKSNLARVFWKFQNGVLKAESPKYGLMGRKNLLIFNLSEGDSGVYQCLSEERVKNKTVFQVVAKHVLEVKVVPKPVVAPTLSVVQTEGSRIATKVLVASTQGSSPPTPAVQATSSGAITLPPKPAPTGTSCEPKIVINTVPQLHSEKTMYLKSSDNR
# [9] = molecular target: mouse SEMA4D, full length, on CHO-K1 cells (CHO-K1 mSEMA4D) (mouse) (UniProt O09126); experiment: FACS, CHO-K1 mSEMA4D cells; Ab 13.3 nM
# [10] = molecular target: T2, biotinylated hSEMA4D ECD-His (human); experiment: FACS, blocking of biotinylated hSEMA4D ECD-His binding to 293F hPlexin B1 cells; Ab 0.534 nM
# [11] = molecular target: T2, biotinylated hSEMA4D ECD-His (human); experiment: FACS, blocking of biotinylated hSEMA4D ECD-His binding to 293F hPlexin B1 cells; Ab 0.00427 nM
# [12] = molecular target: T1, human SEMA4D, full length, on CHO-K1 cells (CHO-K1 hSEMA4D) (human); experiment: FACS, CHO-K1 hSEMA4D cells; Ab 0.534 nM
# [13] = molecular target: T2, biotinylated hSEMA4D ECD-His (human); experiment: FACS, blocking of biotinylated hSEMA4D ECD-His binding to 293F hPlexin B1 cells; Ab 0.107 nM
# [14] = molecular target: T1, human SEMA4D, full length, on CHO-K1 cells (CHO-K1 hSEMA4D) (human); experiment: FACS, CHO-K1 hSEMA4D cells; Ab 2.67 nM
# [15] = molecular target: hSEMA4D ECD-His (His-tagged human SEMA4D protein extracellular domain, Met22-Arg734) (human) (UniProt Q92854); experiment: ELISA, coated hSEMA4D ECD-His; Ab 6.67 nM
Substance,MFI [1],MFI [2],MFI [3],MFI [4],MFI [5],MFI [6],MFI [7],MFI (residual ligand binding) [8],MFI [9],MFI (residual ligand binding) [10],MFI (residual ligand binding) [11],MFI [12],MFI (residual ligand binding) [13],MFI [14],OD450 nm [15]
Human IgG control (antibody),86.7,25,23.7,37.4,31.6,24.1,35.8,338,23.8,341,378,37.4,364,35.9,–
Mouse IgG control (antibody),65.6,29.8,29.5,35.5,22.9,30.5,40.2,470,30.3,472,486,36.5,473,35.6,0.533
